Non-standard residues stand in square brackets, D forms with d. Residues, ends and D or L forms follow the SMILES beside them. *: point of attachment. Dnp = O=[N+]([O-])c1ccc(*)c([N+](=O)[O-])c1; Mca = COc1ccc2c(CC(=O)*)cc(=O)oc2c1
Columns and labels:
Assay type in all cases: biochemical
[1] = molecular target: T1, Cath E (Homo sapiens, UniProt P14091); test: Reported specificity constants of Cath E for various substrates; set-up: purchased Calbiochem, EMD Bioscience (Gibbstown, N.J.); settings: sequence 3 vs sequence 2
T1 sequence (P14091 54-396): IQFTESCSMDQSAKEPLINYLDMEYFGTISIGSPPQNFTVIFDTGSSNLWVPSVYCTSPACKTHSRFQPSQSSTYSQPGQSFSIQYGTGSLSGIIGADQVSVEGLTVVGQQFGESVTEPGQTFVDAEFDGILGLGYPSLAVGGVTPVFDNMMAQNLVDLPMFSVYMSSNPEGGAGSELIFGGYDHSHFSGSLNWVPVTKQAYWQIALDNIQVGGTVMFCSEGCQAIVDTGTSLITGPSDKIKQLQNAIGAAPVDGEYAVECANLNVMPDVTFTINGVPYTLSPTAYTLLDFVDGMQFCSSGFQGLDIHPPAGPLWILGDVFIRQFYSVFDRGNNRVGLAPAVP
Description: Table 4 compiles the reported specificity constant (Kcat/Km) of Cath E and Cath D using various substrates including peptide substrate e. […] The specificity constant of Cath E for substrate e represents one of the highest reported Kcat/Km values.

[2] = molecular target: T2, Cath D (Homo sapiens, UniProt P07339); test: FRET hydrolysis of quenched substrates a-e by Cath D; settings: compared among substrates a-e
T2 sequence (P07339 65-412): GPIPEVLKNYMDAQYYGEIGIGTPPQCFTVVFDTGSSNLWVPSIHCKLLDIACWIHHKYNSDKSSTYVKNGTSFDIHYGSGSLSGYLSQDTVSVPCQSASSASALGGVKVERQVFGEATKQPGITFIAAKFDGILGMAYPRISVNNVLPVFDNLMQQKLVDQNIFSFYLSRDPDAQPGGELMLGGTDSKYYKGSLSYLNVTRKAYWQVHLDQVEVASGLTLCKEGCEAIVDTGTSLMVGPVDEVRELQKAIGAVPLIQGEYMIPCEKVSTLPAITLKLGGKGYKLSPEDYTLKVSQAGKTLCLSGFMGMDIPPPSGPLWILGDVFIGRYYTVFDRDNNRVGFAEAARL
Protocol: (§1) The catalytic selectivity of Cath E and Cath D was determined fluorometrically by FRET-based hydrolysis of intramolecularly quenched peptide substrates a-e. Fluorogenic substrates a-e (10 μL, 200 μM) were incubated with 23 pmol of Cath E or Cath D in 50 mM sodium acetate buffer, pH 4, containing 150 mM NaCl, and the total volume was brought to 100 μL, using the same buffer. Cath S and Cath B were pre-activated by incubation with 100 mM sodium acetate buffer solution, pH 6.5, containing 5 mM DTT and 5 mM EDTA for 5 minutes. Cath S and Cath B (23 pmol) were incubated with 10 μL, of 200 μM fluorogenic substrate e at 100 mM sodium acetate buffer solution, pH6.5, containing 5 mM DTT and 5 mM EDTA, and the total volume was brought to 100 μL, using the same buffer. All assays were performed in triplicate in 96 well black walls, clear-bottom plates (Corning, N.Y.). The change in the fluorescence intensity was monitored over time using SpectraMax.M2^e fluorescence spectrophotometer (Molecular Devices; Sunnyvale, Calif.) at excitation wavelength (λex) of 340 nm and emission wavelength (λem) of 405 nm at 37° C. Control experiments were performed simultaneously by replacing the enzyme with assay buffer.

[3] = molecular target: T1, Cath E; test: FRET hydrolysis of quenched substrates a-e by Cath E; set-up: purchased Calbiochem, EMD Bioscience (Gibbstown, N.J.); settings: for time to saturation of fluorescence on activation by Cath E: 23 pmol Cath E
Protocol: as §1

[4] = molecular target: T3, Cath B (Homo sapiens, UniProt P07858); test: FRET hydrolysis of substrate e by Cath B; settings: 90 minutes, pH 6.5
T3 construct: purchased Calbiochem, EMD Bioscience (Gibbstown, N.J.)
Protocol: as §1

[5] = molecular target: T4, Cath S (Homo sapiens, UniProt P25774); test: FRET hydrolysis of substrate e by Cath S; settings: 90 minutes, pH 6.5
T4 construct: purchased Calbiochem, EMD Bioscience (Gibbstown, N.J.)
T4 sequence (P25774 115-331): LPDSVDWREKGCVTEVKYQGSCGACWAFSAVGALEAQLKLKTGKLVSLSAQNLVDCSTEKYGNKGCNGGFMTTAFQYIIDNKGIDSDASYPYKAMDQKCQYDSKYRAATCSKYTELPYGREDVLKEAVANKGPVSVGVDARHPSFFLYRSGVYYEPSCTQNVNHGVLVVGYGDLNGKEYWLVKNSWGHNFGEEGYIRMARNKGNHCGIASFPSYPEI
Protocol: as §1

[6] = molecular target: T1, Cath E; test: Enzyme digestion, fragments by RP-HPLC and ESI-MS (Cath E); set-up: purchased Calbiochem, EMD Bioscience (Gibbstown, N.J.); settings: excess Cath E, 37° C., 3 hours
Protocol: Substrate e was subjected to aspartic peptidase digestion using Cath E and Cath D. Fluorogenic substrate e (10 μL, 100 μM) was incubated at 37° C. for 3 hours with excess Cath E or Cath D (˜119 pmol) in 100 μL, of 50 mM sodium acetate buffer (pH 4) containing 150 mM NaCl. The resulting digestion fragments were analyzed by the aforementioned analytical RP-HPLC and ESI-MS.

[7] = molecular target: T2, Cath D; test: Enzyme digestion, fragments by RP-HPLC and ESI-MS (Cath D); settings: high dose of Cath D, overnight hydrolysis
Protocol: Substrate e was subjected to aspartic peptidase digestion using Cath E and Cath D. […] The resulting digestion fragments were analyzed by the aforementioned analytical RP-HPLC and ESI-MS.

[8] = substrate: COc1ccc2c(CC(=O)N[C@@H](C)C(=O)NCC(=O)N[C@@H](Cc3ccccc3)C(=O)N[C@@H](CO)C(=O)N[C@@H](CC(C)C)C(=O)N3CCC[C@H]3C(=O)N[C@@H](C)C(=O)N[C@@H](CCCCNc3ccc([N+](=O)[O-])cc3[N+](=O)[O-])C(=O)N[C@H](CCCNC(=N)N)C(N)=O)cc(=O)oc2c1; test: Kinetic parameters of substrate e hydrolysis by Cath E; settings: other: Cath E 6.8 nM, pH 4.0, 10 minutes, 37° C., Woolf transformation
Protocol: The initial rates of substrate e hydrolysis by Cath E were monitored using a fluorescence plate-reader. Hydrolysis of different substrate e concentrations, 10, 20, 40 and 60 μM, was performed at pH 4 in 50 mM sodium acetate buffer containing 150 mM NaCl. Cath E with various concentrations, 2.27, 4.55, 6.82 nM, were incubated with substrate e and the changes in the fluorescence intensities were monitored for 10 minutes. The substrate e hydrolysis was determined by integrating the fluorescence intensity, and plotted by the amount of the hydrolyzed substrate e over time.
The initial velocities of the hydrolysis reactions were measured between 0 and 10 minutes using several concentrations of substrate e including: 5, 10, 20, 40, 60, 80, 100 μM. All of the used substrate e concentrations were much higher than the concentrations of enzyme (2.3, 4.5 and 6.8 nM). To measure the initial rates of the substrate e proteolysis and to determine Michaelis-Menten kinetic parameters Vmax and Km of the Cath E and Cath D, the Michaelis-Menten equation was transformed using the Woolf kinetic transformation [S/v=(S/Vmax)+(Km/Vmax)]. The initial velocity was calculated from the slope during the linear phase of the reaction and S/Vplotted versus substrate e concentration. The graph representation gave straight lines and Vmax and Km were calculated by the linear regression of the line to obtain the slope and intercept. The turnover number of Cath E enzyme (Kcat) was calculated using the equation Kcat=Vmax/[Cath E], where [Cath E] represents the Cath E concentration in μM and Vmax is the maximum velocity in μM S-1. All the reactions and measurements were carried out in 50 mM sodium acetate buffers (pH 4.0) using the aforementioned setting.

Molecule: Mca-Gly-Ser-Pro-Ala-Phe**Leu-Ala-Lys(Dnp)-DArg-CONH2 (Mca-GSPAFLAK(Dnp)[dR]-NH2; SMILES COc1ccc2c(CC(=O)NCC(=O)N[C@@H](CO)C(=O)N3CCC[C@H]3C(=O)N[C@@H](C)C(=O)N[C@@H](Cc3ccccc3)C(=O)N[C@@H](CC(C)C)C(=O)N[C@@H](C)C(=O)N[C@@H](CCCCNc3ccc([N+](=O)[O-])cc3[N+](=O)[O-])C(=O)N[C@H](CCCNC(=N)N)C(N)=O)cc(=O)oc2c1) [Substrate a]
- Kcat/Km for Cath E relative to sequence 2 [1]: around 16 fold
- fluorescence increase / hydrolysis upon incubation with Cath D [2]: the highest among all investigated substrates
- fluorescence increase upon incubation with Cath E ([3]; compared among substrates a-e): the fastest increase and the highest fluorescence signal among all investigated substrates

Molecule: Mca-Ala-Gly-Phe-Ser-Leu**Gly-Pro-Lys(Dnp)-DArg-CONH2 (Mca-AGFSLGPK(Dnp)[dR]-NH2; SMILES COc1ccc2c(CC(=O)N[C@@H](C)C(=O)NCC(=O)N[C@@H](Cc3ccccc3)C(=O)N[C@@H](CO)C(=O)N[C@@H](CC(C)C)C(=O)NCC(=O)N3CCC[C@H]3C(=O)N[C@@H](CCCCNc3ccc([N+](=O)[O-])cc3[N+](=O)[O-])C(=O)N[C@H](CCCNC(=N)N)C(N)=O)cc(=O)oc2c1) [Substrate d]
- time to saturation of fluorescence on activation by Cath E ([3]; 200 μM substrate, pH 4.0): did not reach saturation within the monitored period

Molecule: COc1ccc2c(CC(=O)N[C@@H](C)C(=O)NCC(=O)N[C@@H](Cc3ccccc3)C(=O)N[C@@H](CO)C(=O)N[C@@H](CC(C)C)C(=O)N3CCC[C@H]3C(=O)N[C@@H](C)C(=O)N[C@@H](CCCCNc3ccc([N+](=O)[O-])cc3[N+](=O)[O-])C(=O)N[C@H](CCCNC(=N)N)C(N)=O)cc(=O)oc2c1 [Substrate e, Mca-Ala-Gly-Phe-Ser-Leu**Pro-Ala-Lys(Dnp)-DArg-CONH2] (Mca-AGFSLPAK(Dnp)[dR]-NH2)
- fluorescent signal increase relative to that observed with Cath E [4]: less than 15%
- fluorescent signal increase relative to that observed with Cath E [5]: less than 15%
- cleavage site [6]: exclusively between Leu^5 and Pro^6
- cleavage sites [7]: two minor cleavage sites
- time to saturation of fluorescence on activation by Cath E ([3]; 200 μM substrate, pH 4.0): ≤ 10 min
- net fluorescence signal ratio (Cath E/Cath D) ([3]; 1 minute / initial time point, 200 μM substrate, 23 pmol enzyme, pH 4.0): 265 fold

B1: Cath E (Homo sapiens) (protein)
chain: IQFTESCSMDQSAKEPLINYLDMEYFGTISIGSPPQNFTVIFDTGSSNLWVPSVYCTSPACKTHSRFQPSQSSTYSQPGQSFSIQYGTGSLSGIIGADQVSVEGLTVVGQQFGESVTEPGQTFVDAEFDGILGLGYPSLAVGGVTPVFDNMMAQNLVDLPMFSVYMSSNPEGGAGSELIFGGYDHSHFSGSLNWVPVTKQAYWQIALDNIQVGGTVMFCSEGCQAIVDTGTSLITGPSDKIKQLQNAIGAAPVDGEYAVECANLNVMPDVTFTINGVPYTLSPTAYTLLDFVDGMQFCSSGFQGLDIHPPAGPLWILGDVFIRQFYSVFDRGNNRVGLAPAVP
notes: purchased Calbiochem, EMD Bioscience (Gibbstown, N.J.)
- Km [8]: 19.37 µM
- Vmax [8]: 2.2 μM S^−1
- kcat [8]: 322.5 S^−1
- kcat/Km [8]: 16.7 μM^−1 S^−1
